The target of this experiment is hPD-L1(ECD)-mFc (human). Put plainly: ELISA, hPD-L1-mFc coated.
hPD-L1(ECD)-mFc (human), sequence (chain, as listed by the source limits assumed): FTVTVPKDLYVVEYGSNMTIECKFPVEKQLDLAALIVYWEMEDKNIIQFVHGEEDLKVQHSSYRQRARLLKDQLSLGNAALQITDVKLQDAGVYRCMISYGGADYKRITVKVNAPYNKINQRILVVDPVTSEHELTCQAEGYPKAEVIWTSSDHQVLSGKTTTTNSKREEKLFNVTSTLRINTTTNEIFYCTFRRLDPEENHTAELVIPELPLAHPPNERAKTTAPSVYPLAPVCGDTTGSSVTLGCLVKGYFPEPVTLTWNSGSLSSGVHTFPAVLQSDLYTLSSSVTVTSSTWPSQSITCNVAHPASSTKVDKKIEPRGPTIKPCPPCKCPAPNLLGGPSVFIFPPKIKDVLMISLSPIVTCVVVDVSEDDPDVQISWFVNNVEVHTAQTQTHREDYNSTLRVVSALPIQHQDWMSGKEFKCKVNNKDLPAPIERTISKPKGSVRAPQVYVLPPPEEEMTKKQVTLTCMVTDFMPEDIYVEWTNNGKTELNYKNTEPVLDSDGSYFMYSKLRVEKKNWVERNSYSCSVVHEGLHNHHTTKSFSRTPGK

In turn, Tecentriq (antibody) displayed an EC50 of 0.142 µg/mL.

Usually EC50 stands for the concentration that produces a half-maximal response. Read a high EC50 as lower potency in that assay.

Values taken from patent WO2019109974A1.
